{"source": "patent US20030129193A1", "about": "(priority 2001, published 2003)", "key": {"[1]": {"test_system": "Mouse bEnd.3 endothelial cells", "experiment": "PS induction by H2O2", "format": "cell-based", "description": "Mouse bEnd.3 endothelial cells were seeded at an initial density of 50,000 cells/well. Twenty-fours later cells were incubated with increasing concentrations of H2O2 (from 10 μM to 500 μM) for 1 hour at 37° C. or left untreated. At the end of the incubation, cells were washed 3 times with PBS containing 0.2% gelatin and fixed with 0.25% glutaraldehyde. Identical wells were either stained with anti-PS IgM or trypsinized and evaluated for viability by the Trypan Blue exclusion test. For the anti-PS staining, after blocking with 2% gelatin for 10 min., cells were incubated with 2 μg/ml of anti-PS antibody, followed by detection with anti-mouse IgM-HRP conjugate."}, "[2]": {"biological_target": "recombinant, depyrogenated truncated Tissue Factor (amino acids 1-219), secreted into the periplasm of E. coli from vector pswc7 (human) (UniProt P13726)", "experiment": "cell-based or functional assay"}, "[3]": {"test_system": "tissue factor on HUVEC cells", "experiment": "FACS analysis of tissue factor expression", "format": "cell-based, human", "details": "6 h at 37°; TNFα 500 U/ml, LPS 10 μg/ml, VEGF 1 nM", "description": "To analyze tissue factor expression on the surface of endothelial cells, HUVEC cells were incubated with TNFα (500 U/ml), LPS (10 μg/ml) or vascular endothelial growth factor (VEGF, 1 nM) alone or in combination for 6 h at 37°. Cells were then detached and stained for surface expression of human tissue factor with a sheep-anti-human tissue factor antibody (Haemochrom, Essen, Germany) and an appropriate FITC-conjugated secondary antibody. Fluorescent cells were detected on a flow cytometer (Becton Dickinson. San Jose, Calif.)."}, "[4]": {"test_system": "HT29 human colorectal carcinoma", "experiment": "Anti-tumor effects and tumor necrosis, HT29", "format": "in vivo, BALB/c nu/nu mice", "details": "small HT29 tumors, single agents, 24 hours"}, "[5]": {"test_system": "citrated mouse or human plasma", "experiment": "In vitro coagulation assay on A20 cells", "format": "cell-based", "details": "for coagulation times versus tTF219 and Factor VIIa at the same concentrations: Factor VIIa at 1 nM or greater; for concentration at which plasma coagulated in 50 seconds: localized on A20 cells via B21-2/10H10; for reduction of coagulation-inducing activity relative to monomer / tTF219: less active"}, "factor X": {"test_system": "factor X", "experiment": "Factor Xa production assay on A20 cells", "format": "cell-based", "details": "Factors II, VII and IX present"}}, "data": [{"molecule": "OO", "note": "[H2O2]", "values": [{"measurement": "cells with PS at the cell surface", "setting": "[1]; concentrations as low as 20 μM", "result": "about 50%"}, {"measurement": "cells with PS translocation", "setting": "[1]; concentrations higher than 100 μM, 1 hour", "result": "~90", "unit": "%"}, {"measurement": "cell viability", "setting": "[1]; low levels of H2O2 (lower than 100 μM)", "result": 95, "unit": "%"}]}, {"molecule": "Factor VIIa (Sigma) (enzyme)", "values": [{"measurement": "Factor Xa generation due to Factor VIIa production on bEnd3 cells; stimulation: 0.5 µg/ml LPS; incubation: tTF-VIIa", "setting": "[2]", "result": 6.25, "unit": "nkat S2222"}, {"measurement": "Factor Xa generation due to Factor VIIa production on bEnd3 cells; stimulation: 0.5 µg/ml LPS; tTF-VIIa minus sTF", "setting": "[2]", "result": 3.25, "unit": "nkat S2222"}, {"measurement": "Factor Xa generation due to Factor VIIa production on bEnd3 cells; stimulation: TNFα; incubation: tTF-VIIa", "setting": "[2]", "result": 2.93, "unit": "nkat S2222"}, {"measurement": "Factor Xa generation due to Factor VIIa production on bEnd3 cells; stimulation: TNFα; tTF-VIIa minus sTF", "setting": "[2]", "result": 1.02, "unit": "nkat S2222"}, {"measurement": "Factor Xa generation due to Factor VIIa production on bEnd3 cells; stimulation: medium; incubation: tTF-VIIa", "setting": "[2]", "result": 0.95, "unit": "nkat S2222"}, {"measurement": "Factor Xa generation due to Factor VIIa production on bEnd3 cells; stimulation: medium; tTF-VIIa minus sTF", "setting": "[2]", "result": 0.25, "unit": "nkat S2222"}, {"measurement": "Factor Xa generation on bEnd3 cells; stimulation: 0.5 µg/ml LPS; incubation: tTF-VIIa", "setting": "[2]", "result": 3.35, "unit": "nkat S2222"}, {"measurement": "Factor Xa generation on bEnd3 cells; stimulation: 0.5 µg/ml LPS; tTF-VIIa minus sTF (background subtracted)", "setting": "[2]", "result": 1.35, "unit": "nkat S2222"}, {"measurement": "Factor Xa generation on bEnd3 cells; stimulation: 10 µg/ml LPS; incubation: tTF-VIIa", "setting": "[2]", "result": 4.46, "unit": "nkat S2222"}, {"measurement": "Factor Xa generation on bEnd3 cells; stimulation: 10 µg/ml LPS; tTF-VIIa minus sTF (background subtracted)", "setting": "[2]", "result": 1.55, "unit": "nkat S2222"}, {"measurement": "Factor Xa generation on bEnd3 cells; stimulation: TNFα; incubation: tTF-VIIa", "setting": "[2]", "result": 1.51, "unit": "nkat S2222"}, {"measurement": "Factor Xa generation on bEnd3 cells; stimulation: TNFα; tTF-VIIa minus sTF (background subtracted)", "setting": "[2]", "result": 0.84, "unit": "nkat S2222"}, {"measurement": "Factor Xa generation on bEnd3 cells; stimulation: medium; incubation: tTF-VIIa", "setting": "[2]", "result": 0.56, "unit": "nkat S2222"}, {"measurement": "Factor Xa generation on bEnd3 cells; stimulation: medium; tTF-VIIa minus sTF (background subtracted)", "setting": "[2]", "result": 0.16, "unit": "nkat S2222"}]}, {"molecule": "VEGF", "values": [{"measurement": "tissue factor expression on the surface of HUVEC", "setting": "[3]", "result": "upregulated tissue factor expression"}]}, {"molecule": "tTF219 (G164A): tTF219 with amino acid 164 (Gly) replaced by Ala (protein) GSGTTNTVAAYNLTWKSTNFKTILEWEPKPVNQVYTVQISTKSGDWKSKCFYTTDTECDLTDEIVKDVKQTYLARVFSYPAGNVESTGSAGEPLYENSPEFTPYLETNLGQPTIQSFEQVGTKVNVTVEDERTLVRRNNTFLSLRDVFGKDLIYTLYYWKSSSSAKKTAKTNTNEFLIDVDKGENYCFSVQAVIPSRTVNRKSTDSPVECMGQEKGEFRE", "values": [{"measurement": "necrosis in tumor sections", "setting": "[4]", "result": "some necrosis"}, {"measurement": "coagulation times versus tTF219 and Factor VIIa at the same concentrations", "setting": "[5]", "result": "only marginally slower coagulation times"}]}, {"molecule": "tTF219 (W158R) (protein) GSGTTNTVAAYNLTWKSTNFKTILEWEPKPVNQVYTVQISTKSGDWKSKCFYTTDTECDLTDEIVKDVKQTYLARVFSYPAGNVESTGSAGEPLYENSPEFTPYLETNLGQPTIQSFEQVGTKVNVTVEDERTLVRRNNTFLSLRDVFGKDLIYTLYYRKSSSSGKKTAKTNTNEFLIDVDKGENYCFSVQAVIPSRTVNRKSTDSPVECMGQEKGEFRE", "values": [{"measurement": "coagulation times versus tTF219 and Factor VIIa at the same concentrations", "setting": "[5]", "result": "only marginally slower coagulation times"}]}, {"molecule": "H6-tTF220-cys-C′: tTF219 mutated to encode Ile-Cys after amino acid 219, (His)6 tag (protein) HHHHHHAMALVPRGSGTTNTVAAYNLTWKSTNFKTILEWEPKPVNQVYTVQISTKSGDWKSKCFYTTDTECDLTDEIVKDVKQTYLARVFSYPAGNVESTGSAGEPLYENSPEFTPYLETNLGQPTIQSFEQVGTKVNVTVEDERTLVRRNNTFLSLRDVFGKDLIYTLYYWKSSSSGKKTAKTNTNEFLIDVDKGENYCFSVQAVIPSRTVNRKSTDSPVECMGQEKGEFRE", "values": [{"measurement": "concentration at which plasma coagulated in 50 seconds", "setting": "[5]", "result": 500, "unit": "pM"}]}, {"molecule": "H6-tTF221-cys-C′ dimer: chemically conjugated disulfide dimer of H6-tTF221-cys-C′ (protein) HHHHHHAMALVPRGSGTTNTVAAYNLTWKSTNFKTILEWEPKPVNQVYTVQISTKSGDWKSKCFYTTDTECDLTDEIVKDVKQTYLARVFSYPAGNVESTGSAGEPLYENSPEFTPYLETNLGQPTIQSFEQVGTKVNVTVEDERTLVRRNNTFLSLRDVFGKDLIYTLYYWKSSSSGKKTAKTNTNEFLIDVDKGENYCFSVQAVIPSRTVNRKSTDSPVECMGQEKGEFRE", "values": [{"measurement": "reduction of coagulation-inducing activity relative to monomer / tTF219", "setting": "[5]", "result": 4, "unit": "fold"}]}, {"molecule": "tTF221-cys-C′: tTF with Ile-Phe-Cys after amino acid 219, without (His)6 tag (protein) GSGTTNTVAAYNLTWKSTNFKTILEWEPKPVNQVYTVQISTKSGDWKSKCFYTTDTECDLTDEIVKDVKQTYLARVFSYPAGNVESTGSAGEPLYENSPEFTPYLETNLGQPTIQSFEQVGTKVNVTVEDERTLVRRNNTFLSLRDVFGKDLIYTLYYWKSSSSGKKTAKTNTNEFLIDVDKGENYCFSVQAVIPSRTVNRKSTDSPVECMGQEKGEFREIFC", "values": [{"measurement": "concentration at which plasma coagulated in 50 seconds", "setting": "[5]", "result": 500, "unit": "pM"}]}, {"molecule": "IgG-H6—N′-cys-tTF219: one molecule of IgG linked via SMPT to one or two molecules of tTF (conjugate, left off: large carriers) HHHHHHAMALVPRGSCGTTNTVAAYNLTWKSTNFKTILEWEPKPVNQVYTVQISTKSGDWKSKCFYTTDTECDLTDEIVKDVKQTYLARVFSYPAGNVESTGSAGEPLYENSPEFTPYLETNLGQPTIQSFEQVGTKVNVTVEDERTLVRRNNTFLSLRDVFGKDLIYTLYYWKSSSSGKKTAKTNTNEFLIDVDKGENYCFSVQAVIPSRTVNRKSTDSPVECMGQEKGEFRE", "values": [{"measurement": "reduction of coagulation-inducing activity relative to monomer / tTF219", "setting": "[5]", "result": 5, "unit": "fold"}, {"measurement": "concentration at which plasma coagulated in 50 seconds", "setting": "[5]", "result": 5000, "unit": "pM"}, {"measurement": "Xa formation, less active than H6—N′-cys-tTF219", "setting": "factor X", "result": 2, "unit": "fold"}]}, {"molecule": "Fab′-H6—N′-cys-tTF219: Fab′-SS-tTF conjugate (conjugate, left off: another chain or arm of the molecule; large carriers) HHHHHHAMALVPRGSCGTTNTVAAYNLTWKSTNFKTILEWEPKPVNQVYTVQISTKSGDWKSKCFYTTDTECDLTDEIVKDVKQTYLARVFSYPAGNVESTGSAGEPLYENSPEFTPYLETNLGQPTIQSFEQVGTKVNVTVEDERTLVRRNNTFLSLRDVFGKDLIYTLYYWKSSSSGKKTAKTNTNEFLIDVDKGENYCFSVQAVIPSRTVNRKSTDSPVECMGQEKGEFRE", "values": [{"measurement": "Xa formation relative to H6—N′-cys-tTF219", "setting": "factor X", "result": "as active as H6—N′-cys-tTF219 itself"}]}, {"molecule": "H6-tTF219-cys-C′: (His)6 tTF219 with a Cys after amino acid 219 (protein) HHHHHHAMALVPRGSGTTNTVAAYNLTWKSTNFKTILEWEPKPVNQVYTVQISTKSGDWKSKCFYTTDTECDLTDEIVKVKQTYLARVFSYPAGNVESTGSAGEPLYENSPEFTPYLETNLGQPTIQSFEQVGTKVNVTVEDRTLVRRNNTFLSLRDVFGKDLIYTLYYWKSSSSGKKTAKTNTNEFLIDVDKGENYCFSVQAVIPSRTVNRKSTDSPVECMGQEKGEFREC", "values": [{"measurement": "concentration at which plasma coagulated in 50 seconds", "setting": "[5]", "result": 3000, "unit": "pM"}]}, {"molecule": "tTF220-cys-C′: tTF with Ile-Cys after amino acid 219, without (His)6 tag (protein) GSGTTNTVAAYNLTWKSTNFKTILEWEPKPVNQVYTVQISTKSGDWKSKCFYTTDTECDLTDEIVKDVKQTYLARVFSYPAGNVESTGSAGEPLYENSPEFTPYLETNLGQPTIQSFEQVGTKVNVTVEDERTLVRRNNTFLSLRDVFGKDLIYTLYYWKSSSSGKKTAKTNTNEFLIDVDKGENYCFSVQAVIPSRTVNRKSTDSPVECMGQEKGEFREIC", "values": [{"measurement": "concentration at which plasma coagulated in 50 seconds", "setting": "[5]", "result": 500, "unit": "pM"}]}, {"molecule": "Factor VIIa: recombinant human Factor VIIa (protein) light: ANAFLEELRPGSLERECKEEQCSFEEAREIFKDAERTKLFWISYSDGDQCASSPCQNGGSCKDQLQSYICFCLPAFEGRNCETHKDDQLICVNENGGCEQYCSDHTGTKRSCRCHEGYSLLADGVSCTPTVEYPCGKIPILEKRNASKPQGR heavy: IVGGKVCPKGECPWQVLLLVNGAQLCGGTLINTIWVVSAAHCFDKIKNWRNLIAVLGEHDLSEHDGDEQSRRVAQVIIPSTYVPGTTNHDIALLRLHQPVVLTDHVVPLCLPERTFSERTLAFVRFSLVSGWGQLLDRGATALELMVLNVPRLMTQDCLQQSRKVGDSPNITEYMFCAGYSDGSKDSCKGDSGGPHATHYRGTWYLTGIVSWGQGCATVGHFGVYTRVSQYIEWLQKLMRSEPRPGVLLRAPFP", "values": [{"measurement": "necrosis in tumor sections", "setting": "[4]", "result": "some necrosis"}]}]}
